Measurements: publication PMC2857095 (The Journal of Biological Chemistry, 2010)

Target: T1, DNA mismatch repair protein MutS, wild type (E. coli, UniProt P23909 1-853)
T1 sequence (looked up): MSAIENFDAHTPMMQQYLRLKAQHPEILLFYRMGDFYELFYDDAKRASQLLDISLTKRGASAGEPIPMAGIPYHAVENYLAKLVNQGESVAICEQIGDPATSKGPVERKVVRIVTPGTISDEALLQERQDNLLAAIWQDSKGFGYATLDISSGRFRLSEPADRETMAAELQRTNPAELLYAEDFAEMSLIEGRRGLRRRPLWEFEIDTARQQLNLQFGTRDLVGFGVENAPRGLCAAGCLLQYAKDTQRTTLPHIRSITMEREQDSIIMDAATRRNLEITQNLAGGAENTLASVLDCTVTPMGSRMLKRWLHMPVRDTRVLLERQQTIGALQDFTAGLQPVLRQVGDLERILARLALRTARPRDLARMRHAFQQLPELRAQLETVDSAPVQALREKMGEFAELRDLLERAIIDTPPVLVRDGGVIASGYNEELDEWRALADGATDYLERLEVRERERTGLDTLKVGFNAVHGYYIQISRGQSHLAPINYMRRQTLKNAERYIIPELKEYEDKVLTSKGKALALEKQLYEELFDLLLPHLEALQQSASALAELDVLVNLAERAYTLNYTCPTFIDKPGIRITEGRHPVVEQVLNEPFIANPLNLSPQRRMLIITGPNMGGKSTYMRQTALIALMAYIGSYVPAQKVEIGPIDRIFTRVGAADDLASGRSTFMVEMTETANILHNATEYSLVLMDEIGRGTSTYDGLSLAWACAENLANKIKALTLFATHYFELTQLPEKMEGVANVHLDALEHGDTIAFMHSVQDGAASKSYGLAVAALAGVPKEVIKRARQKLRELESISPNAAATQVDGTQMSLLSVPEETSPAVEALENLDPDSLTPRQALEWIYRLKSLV
Assay: SPR

B1: MutL (natural protein, UniProt P23367 1-615, looked up)
chain: MPIQVLPPQLANQIAAGEVVERPASVVKELVENSLDAGATRIDIDIERGGAKLIRIRDNGCGIKKDELALALARHATSKIASLDDLEAIISLGFRGEALASISSVSRLTLTSRTAEQQEAWQAYAEGRDMNVTVKPAAHPVGTTLEVLDLFYNTPARRKFLRTEKTEFNHIDEIIRRIALARFDVTINLSHNGKIVRQYRAVPEGGQKERRLGAICGTAFLEQALAIEWQHGDLTLRGWVADPNHTTPALAEIQYCYVNGRMMRDRLINHAIRQACEDKLGADQQPAFVLYLEIDPHQVDVNVHPAKHEVRFHQSRLVHDFIYQGVLSVLQQQLETPLPLDDEPQPAPRSIPENRVAAGRNHFAEPAAREPVAPRYTPAPASGSRPAAPWPNAQPGYQKQQGEVYRQLLQTPAPMQKLKAPEPQEPALAANSQSFGRVLTIVHSDCALLERDGNISLLSLPVAERWLRQAQLTPGEAPVCAQPLLIPLRLKVSAEEKSALEKAQSALAELGIDFQSDAQHVTIRAVPLPLRQQNLQILIPELIGYLAKQSVFEPGNIAQWIARNLMSEHAQWSMAQAITLLADVERLCPQLVKTPPGGLLQSVDLHPAIKALKDE
- binding result: binds
